Target: soluble human FcRn (human) (UniProt P55899)
Assay: SPR; pH 6.0

Sequence of UniProt P55899 (P55899 24-297, chain 1 of 2): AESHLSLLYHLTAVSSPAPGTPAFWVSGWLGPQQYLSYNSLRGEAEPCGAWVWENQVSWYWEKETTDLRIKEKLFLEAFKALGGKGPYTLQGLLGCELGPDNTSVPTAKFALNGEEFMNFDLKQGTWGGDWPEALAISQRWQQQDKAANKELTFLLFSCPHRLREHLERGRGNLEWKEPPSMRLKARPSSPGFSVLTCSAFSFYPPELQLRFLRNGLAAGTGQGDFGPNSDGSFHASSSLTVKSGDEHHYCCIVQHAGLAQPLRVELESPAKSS
Sequence of UniProt P55899 (P61769 21-119, chain 2 of 2, further chain): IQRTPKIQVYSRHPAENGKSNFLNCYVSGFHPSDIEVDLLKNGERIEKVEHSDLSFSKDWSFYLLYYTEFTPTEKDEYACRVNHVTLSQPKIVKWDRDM

Row | Substance | Kd [nM]
1 | hAK23-IgG1-WT | 334
2 | hAK23-IgG4-DHS | 64
3 | hAK23-IgG4-WT | 215
4 | hAK23-IgG1-DHS | 137
